Results published in the supplement of paper PMC5998384.

Assays:
HeLa Kyoto [1] = test: solubility in G1/S (NP-40 vs SDS abundance) (log2 ratio); higher = more soluble; settings: cell cycle stage: G1/S
HeLa Kyoto [2] = test: solubility change mitosis vs G1/S (difference of NP-40 vs SDS log2 ratios) (log2 ratio difference); higher = more soluble in mitosis
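Wherever solubility change mitosis vs G1/S (difference of NP-40 vs SDS log2 ratios) is given: synchronized HeLa Kyoto cells (double thymidine block for G1/S, nocodazole release for mitosis), protein amounts in NP-40 versus SDS lysates quantified by mass spectrometry, three biological replicates.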
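Wherever solubility in G1/S (NP-40 vs SDS abundance) is given: HeLa Kyoto cells arrested at G1/S by double thymidine block, proteins quantified by TMT10plex mass spectrometry in mild NP-40 versus SDS extracts, three biological replicates.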

Substance | solubility in G1/S (log2) (HeLa Kyoto [1]) | solubility change mitosis (log2) (HeLa Kyoto [2])
MAGEEINEDYPVEIHEYLSAFENSIGAVDEMLKTMMSVSRNELLQKLDPLEQAKVDLVSAYTLNSMFWVYLATQGVNPKEHPVKQELERIRVYMNRVKEITDKKKAGKLDRGAASRFVKNALWEPKSKNASKVANKGKSKS [C1D] | -0.223 | 0.679
MAGPAPPVADELPGPAARRLYSRMEASCLELALEGERLCKAGDFKTGVAFFEAAVQVGTEDLKTLSAIYSQLGNAYFYLKEHGRALEYHKHDLLLARTIGDRMGEAKASGNLGNTLKVLGRFDEAAVCCQRHLSIAQEQGDKVGEARALYNIGNVYHAKGKQLSWNAANATQDPGHLPPDVRETLCKASEFYERNLSLVKELGDRAAQGRAYGNLGNTHYLLGNFTEATTFHKERLAIAKEFGDKAAERRAYSNLGNAHVFLGRFDVAAEYYKKTLQLSRQLRDQAVEAQACYSLGNTYTLLQDYERAAEYHLRHLLIAQELADRVGEGRACWSLGNAYVSMGRPAQALTFAKKHLQISQEIGDRHGELTARMNVAQLQLVLGRLTSPAASEKPDLAGYEAQGARPKRTQRLSAETWDLLRLPLEREQNGDSHHSGDWRGPSRDSLPLPVRSRKYQEGPDAERRPREGSHSPLDSADVRVHVPRTSIPRAPSSDEECFFDLLTKFQSSRMDDQRCPLDDGQAGAAEATAAPTLEDRIAQPSMTASPQTEEFFDLIASSQSRRLDDQRASVGSLPGLRITHSNAGHLRGHGEPQEPGDDFFNMLIKYQSSRIDDQRCPPPDVLPRGPTMPDEDFFSLIQRVQAKRMDEQRVDLAGGPEQGAGGPPEPQQQCQPGAS [GPSM1] | 0.244 | -0.0781
MAADLNLEWISLPRSWTYGITRGGRVFFINEEAKSTTWLHPVTGEAVVTGHRRQSTDLPTGWEEAYTFEGARYYINHNERKVTCKHPVTGQPSQDNCIFVVNEQTVATMTSEEKKERPISMINEASNYNVTSDYAVHPMSPVGRTSRASKKVHNFGKRSNSIKRNPNAPVVRRGWLYKQDSTGMKLWKKRWFVLSDLCLFYYRDEKEEGILGSILLPSFQIALLTSEDHINRKYAFKAAHPNMRTYYFCTDTGKEMELWMKAMLDAALVQTEPVKRVDKITSENAPTKETNNIPNHRVLIKPEIQNNQKNKEMSKIEEKKALEAEKYGFQKDGQDRPLTKINSVKLNSLPSEYESGSACPAQTVHYRPINLSSSENKIVNVSLADLRGGNRPNTGPLYTEADRVIQRTNSMQQLEQWIKIQKGRGHEEETRGVISYQTLPRNMPSHRAQIMARYPEGYRTLPRNSKTRPESICSVTPSTHDKTLGPGAEEKRRSMRDDTMWQLYEWQQRQFYNKQSTLPRHSTLSSPKTMVNISDQTMHSIPTSPSHGSIAAYQGYSPQRTYRSEVSSPIQRGDVTIDRRHRAHHPKHVYVPDRRSVPAGLTLQSVSPQSLQGKTLSQDEGRGTLYKYRPEEVDIDAKLSRLCEQDKVVHALEEKLQQLHKEKYTLEQALLSASQEIEMHADNPAAIQTVVLQRDDLQNGLLSTCRELSRATAELERAWREYDKLEYDVTVTRNQMQEQLDHLGEVQTESAGIQRAQIQKELWRIQDVMEGLSKHKQQRGTTEIGMIGSKPFSTVKYKNEGPDYRLYKSEPELTTVAEVDESNGEEKSEPVSEIETSVVKGSHFPVGVVPPRAKSPTPESSTIASYVTLRKTKKMMDLRTERPRSAVEQLCLAESTRPRMTVEEQMERIRRHQQACLREKKKGLNVIGASDQSPLQSPSNLRDNPFRTTQTRRRDDKELDTAIRENDVKPDHETPATEIVQLKETEPQNVDFSKELKKTENISYEMLFEPEPNGVNSVEMMDKERNKDKMPEDVTFSPQDETQTANHKPEEHPEENTKNSVDEQEETVISYESTPEVSRGNQTMAVKSLSPSPESSASPVPSTQPQLTEGSHFMCV [PLEKHA5] | -0.128 | 0.0805
MRSFLQQDVNKTKSRLNVLNGLANNMDDLKINTDITGAKEELLDDNNFISDKESGVHKPKDCQTSFQKNNTLTLPEELSKDKSENALSGGQSSLFIHAGAPTVSSENFILPKGAAVNGPVSHSSLTKTSNMNKGSVSLTTGQPVDQPTTESCSTLKVAADLQLSTPQKASQHQVLFLLSDVAHAKNPTHSNKKLPTSASVGCDIQNSVGSNIKSDGTLINQVEVGEDGEDLLVKDDCVNTVTGISSGTDGFRSENDTNWDPQKEFIQFLMTNEETVDKAPPHSKIGLEKKRKRKMDVSKITRYTEDCFSDSNCVPNKSKMQEVDFLEQNEELQAVDSQKYALSKVKPESTDEDLESVDAFQHLIYNPDKCGEESSPVHTSTFLSNTLKKKCEESDSESPATFSTEEPSFYPCTKCNVNFREKKHLHRHMMYHLDGNSHFRHLNVPRPYACRECGRTFRDRNSLLKHMIIHQERRQKLMEEIRELKELQDEGRSARLQCPQCVFGTNCPKTFVQHAKTHEKDKRYYCCEECNFMAVTENELECHRGIAHGAVVKCPMVTSDIAQRKTQKKTFMKDSVVGSSKKSATYICKMCPFTTSAKSVLKKHTEYLHSSSCVDSFGSPLGLDKRKNDILEEPVDSDSTKTLTKQQSTTFPKNSALKQDVKRTFGSTSQSSSFSKIHKRPHRIQKARKSIAQSGVNMCNQNSSPHKNVTIKSSVDQKPKYFHQAAKEKSNAKANSHYLYRHKYENYRMIKKSGESYPVHFKKEEASSLNSLHLFSSSSNSHNNFISDPHKPDAKRPESFKDHRRVAVKRVIKESKKESSVGGEDLDSYPDFLHKMTVVVLQKLNSAEKKDSYETEDESSWDNVELGDYTTQAIEDETYSDINQEHVNLFPLFKSKVEGQEPGENATLSYDQNDGFYFEYYEDTGSNNFLHEIHDPQHLETADASLSKHSSVFHWTDLSLEKKSCPYCPATFETGVGLSNHVRGHLHRAGLSYEARHVVSPEQIATSDKMQHFKRTGTGTPVKRVRKAIEKSETTSEHTCQLCGGWFDTKIGLSNHVRGHLKRLGKTKWDAHKSPICVLNEMMQNEEKYEKILKALNSRRIIPRPFVAQKLASSDDFISQNVIPLEAYRNGLKTEALSVSASEEEGLNFLNEYDETKPELPSGKKNQSLTLIELLKNKRMGEERNSAISPQKIHNQTARKRFVQKCVLPLNEDSPLMYQPQKMDLTMHSALDCKQKKSRSRSGSKKKMLTLPHGADEVYILRCRFCGLVFRGPLSVQEDWIKHLQRHIVNANLPRTGAGMVEVTSLLKKPASITETSFSLLMAEAAS [ZNF644] | -0.00511 | 0.321
MSNGYSTDENFRYLISCFRARVKMYIQVEPVLDYLTFLPAEVKEQIQRTVATSGNMQAVELLLSTLEKGVWHLGWTREFVEALRRTGSPLAARYMNPELTDLPSPSFENAHDEYLQLLNLLQPTLVDKLLVRDVLDKCMEEELLTIEDRNRIAAAENNGNESGVRELLKRIVQKENWFSAFLNVLRQTGNNELVQELTGSDCSESNAEIENLSQVDGPQVEEQLLSTTVQPNLEKEVWGMENNSSESSFADSSVVSESDTSLAEGSVSCLDESLGHNSNMGSDSGTMGSDSDEENVAARASPEPELQLRPYQMEVAQPALEGKNIIICLPTGSGKTRVAVYIAKDHLDKKKKASEPGKVIVLVNKVLLVEQLFRKEFQPFLKKWYRVIGLSGDTQLKISFPEVVKSCDIIISTAQILENSLLNLENGEDAGVQLSDFSLIIIDECHHTNKEAVYNNIMRHYLMQKLKNNRLKKENKPVIPLPQILGLTASPGVGGATKQAKAEEHILKLCANLDAFTIKTVKENLDQLKNQIQEPCKKFAIADATREDPFKEKLLEIMTRIQTYCQMSPMSDFGTQPYEQWAIQMEKKAAKEGNRKERVCAEHLRKYNEALQINDTIRMIDAYTHLETFYNEEKDKKFAVIEDDSDEGGDDEYCDGDEDEDDLKKPLKLDETDRFLMTLFFENNKMLKRLAENPEYENEKLTKLRNTIMEQYTRTEESARGIIFTKTRQSAYALSQWITENEKFAEVGVKAHHLIGAGHSSEFKPMTQNEQKEVISKFRTGKINLLIATTVAEEGLDIKECNIVIRYGLVTNEIAMVQARGRARADESTYVLVAHSGSGVIEHETVNDFREKMMYKAIHCVQNMKPEEYAHKILELQMQSIMEKKMKTKRNIAKHYKNNPSLITFLCKNCSVLACSGEDIHVIEKMHHVNMTPEFKELYIVRENKALQKKCADYQINGEIICKCGQAWGTMMVHKGLDLPCLKIRNFVVVFKNNSTKKQYKKWVELPITFPNLDYSECCLFSDED [IFIH1] | -0.109 | -0.0235
MEEIKPASASCVSKEKPSKVSDLISRFEGGSSLSNYSDLKKESAVNLNAPRTPGRHGLTTTPQQKLLSQHLPQRQGNDTDKTQGAQTCVANGVMAAQNQMECEEEKAATLSSDTSIQASEPLLDTHIVNGERDETATAPASPTTDSCDGNASDSSYRTPGIGPVLPLEERGAETETKVQERENGESPLELEQLDQHHEMKETNEQKLHKIANELLLTERAYVNRLDLLDQVFYCKLLEEANRGSFPAEMVNKIFSNISSINAFHSKFLLPELEKRMQEWETTPRIGDILQKLAPFLKMYGEYVKGFDNAMELVKNMTERIPQFKSVVEEIQKQKICGSLTLQHHMLEPVQRIPRYEMLLKDYLRKLPPDSLDWNDAKKSLEIISTAASHSNSAIRKMENLKKLLEIYEMLGEEEDIVNPSNELIKEGQILKLAARNTSAQERYLFLFNNMLLYCVPKFSLVGSKFTVRTRVGIDGMKIVETQNEEYPHTFQVSGKERTLELQASSAQDKEEWIKALQETIDAFHQRHETFRNAIAKDNDIHSEVSTAELGKRAPRWIRDNEVTMCMKCKEPFNALTRRRHHCRACGYVVCWKCSDYKAQLEYDGGKLSKVCKDCYQIISGFTDSEEKKRKGILEIESAEVSGNSVVCSFLQYMEKSKPWQKAWCVIPKQDPLVLYMYGAPQDVRAQATIPLLGYVVDEMPRSADLPHSFKLTQSKSVHSFAADSEELKQKWLKVILLAVTGETPGGPNEHPATLDDHPEPKKKSEC [FGD4] | -0.163 | -0.00729
MNYVGQLAGQVFVTVKELYKGLNPATLSGCIDIIVIRQPNGNLQCSPFHVRFGKMGVLRSREKVVDIEINGESVDLHMKLGDNGEAFFVQETDNDQEVIPMHLATSPILSEGASRMECQLKRGSVDRMRGLDPSTPAQVIAPSETPSSSSVVKKRRKRRRKSQLDSLKRDDNMNTSEDEDMFPIEMSSDEAMELLESSRTLPNDIPPFQDDIPEENLSLAVIYPQSASYPNSDREWSPTPSPSGSRPSTPKSDSELVSKSTERTGQKNPEMLWLWGELPQAAKSSSPHKMKESSPLSSRKICDKSHFQAIHSESSDTFSDQSPTLVGGALLDQNKPQTEMQFVNEEDLETLGAAAPLLPMIEELKPPSASVVQTANKTDSPSRKRDKRSRHLGADGVYLDDLTDMDPEVAALYFPKNGDPSGLAKHASDNGARSANQSPQSVGSSGVDSGVESTSDGLRDLPSIAISLCGGLSDHREITKDAFLEQAVSYQQFVDNPAIIDDPNLVVKIGSKYYNWTTAAPLLLAMQAFQKPLPKATVESIMRDKMPKKGGRWWFSWRGRNTTIKEESKPEQCLAGKAHSTGEQPPQLSLATRVKHESSSSDEERAAAKPSNAGHLPLLPNVSYKKTLRLTSEQLKSLKLKNGPNDVVFSVTTQYQGTCRCEGTIYLWNWDDKVIISDIDGTITRSDTLGHILPTLGKDWTHQGIAKLYHKVSQNGYKFLYCSARAIGMADMTRGYLHWVNERGTVLPQGPLLLSPSSLFSALHREVIEKKPEKFKVQCLTDIKNLFFPNTEPFYAAFGNRPADVYSYKQVGVSLNRIFTVNPKGELVQEHAKTNISSYVRLCEVVDHVFPLLKRSHSSDFPCSDTFSNFTFWREPLPPFENQDIHSASA [LPIN1] | 0.0583 | -0.0904
CEP290 | 0.253 | 0.0705
MMWRPSVLLLLLLLRHGAQGKPSPDAGPHGQGRVHQAAPLSDAPHDDAHGNFQYDHEAFLGREVAKEFDQLTPEESQARLGRIVDRMDRAGDGDGWVSLAELRAWIAHTQQRHIRDSVSAAWDTYDTDRDGRVGWEELRNATYGHYAPGEEFHDVEDAETYKKMLARDERRFRVADQDGDSMATREELTAFLHPEEFPHMRDIVIAETLEDLDRNKDGYVQVEEYIADLYSAEPGEEEPAWVQTERQQFRDFRDLNKDGHLDGSEVGHWVLPPAQDQPLVEANHLLHESDTDKDGRLSKAEILGNWNMFVGSQATNYGEDLTRHHDEL [RCN3] | 0.0765 | 0.262
